# Laboratory results: patent US9962507B2, “Droplet delivery device for delivery of fluids to the pulmonary system and methods of use” (PNEUMA RESPIRATORY, INC., priority 2016, dated 2018)
# How the values were obtained:
# Type in all cases: physicochemical
# [1] = Anderson Cascade Impactor testing of Albuterol sulfate aerosol from the droplet delivery device (Example B); details: Albuterol 0.5%, 28.3 lpm
# Procedure: Droplet size distribution and related functionality was evaluated for exemplary droplet delivery devices of the disclosure, including Anderson Cascade Impactor testing, total drug mass output rates, total drug respirable mass, delivery efficiencies and reproducibility.
# The study was designed to evaluate device performance of a single Pneuma™ inhaler. A series of three (3) individual tests were conducted with a new disposable drug cartridge for each test. The testing platform utilizes an eight-stage nonviable Anderson Cascade Impactor (Thermo Fisher Scientific; Waltham, Mass.) equipped with a calibrated AALBORG model GFM47 mass flow meter (AALBORG Instruments and Controls; Orangeburg, N.Y.) for flow rate measurement.
# At the conclusion of each test, the mouthpiece was rinsed with mobile phase and collected for HPLC analysis to determine the mass fraction of non-respirable aerosolized drug captured in the mouthpiece via inertial filtering. Following each test, impactor stage samples were extracted and recovered in solvent and analyzed for the active pharmaceutical ingredient (API) using a Dionex Ultimate 3000 nano-HPLC with UV detection (Thermo Scientific, Sunnyvale, Calif.).
# The cascade impactor testing procedure involved fitting the mouthpiece into the Impactor USP throat with a mouthpiece connection seal. […]
# The device was connected to the impactor USB throat, turned on, and actuated ten (10) times for each test. […] The i mouthpiece was rinsed in order to extract drug, and all stages of the cascade impactor were rinsed with a quantity of appropriate solvent (HPLC mobile phase). Extracted samples were placed in labeled and sterile HPLC vials, capped, and analyzed for drug content via HPLC with UV detection. The mouthpiece was extracted of residual drug and analyzed for drug content via HPLC to measure mouthpiece drug deposition in relation to the total collected on the impactor stages.
# All system flow rates and impactor sample flows were monitored throughout each test period. […]
# [2] = Gravimetric analysis of delivered dose per actuation; details: average of five doses (actuations)
# Procedure: Gravimetric analysis was performed by weighing the Enbrel solution filled ampule before and after dosing. The average of five doses (actuations) were analyzed with an average of 4.25 mg+/−0.15 mg. The total delivered dose of Enbrel per actuation is therefore […] per actuation.
# Gravimetric analysis was performed by weighing the Insulin solution filled ampule before and after dosing. The average of five doses (actuations) were analyzed with an average of 5.01 mg+/−0.53 mg. The total delivered dose of Insulin per actuation is therefore 34.8 mcg per actuation.
# [3] = Size exclusion chromatography (SEC) stability after aerosol generation with test device
# Text: Alternately, to determine the stability of active agent after droplet generation, the generated stream of droplets including the active agent may be collected and […] may be employed to monitor for any changes in large molecule aggregation and protein fragment content. Soluble protein aggregates and protein fragment content may be calculated by comparing respective peak area under the SEC-HPLC curve of dispensed protein solutions with controls (solutions remaining in the device reservoir). Drug solutions for testing include Enbrel, (ENBREL® single-use prefilled syringes in 25 mg (0.51 mL of a 50 mg/mL solution of etanercept), and insulin, (Humalog, 200 units/ml, 3 ml […] is performed with a […] 3 μm SEC-2000 LC column 300×7.8 mm, SecurityGuard cartridge kit and SecurityGuard cartridges GFC-2000, 4×3 mm ID. Fifty microliters of Enbrel from the syringe (ENBREL® single-use prefilled syringes in 25 mg/0.51 mL of a 50 mg/mL solution of etanercept) is diluted (4:1) (4 parts, 200 mcl of the mobile phase buffer solution to 1 part, 50 mcl Enbrel from syringe). Fifty microliter of the diluted Enbrel is injected and separation was performed at a flow rate of 1.0 ml/min. The mobile phase buffer system included a PHOS. BUFF. SALINE. […] UV detection is performed at 280 nm. […] Aerosol collection and SEC is performed in a similar fashion as for the Enbrel analysis and aerosol collection. […] Fifty microliters of the collected aerosol spray is injected onto the SEC column for analysis, while 50 mcl of the […] insulin solution is injected onto the SEC column for control samples.
# [4] = Gel electrophoresis of active agent after droplet generation
# Text: To determine the stability of active agent after droplet generation, the generated stream of droplets including the active agent is collected and the molecular weight of the active agent is verified using gel electrophoresis.
# [5] = Enbrel control (not aerosolized)
Substance,droplets of an average diameter of less than about 4 μm ([1]; 10 actuations),Fine ([1]; fraction summary table),Throat ([1]; fraction summary table),"average solution mass per dose (actuation), ampule weighed before and after dosing [2] [mg]","Peak Area %, Peak 3, Avg. ([3]; Insulin aerosolized, average of S1 and S2) [%]","Peak Area %, Peak 3 ([3]; Insulin control (not aerosolized)) [%]","ejected dose that forms a fragment ([3]; Insulin, fragment elutes at ~25 minutes) [%]",change in electrophoretic mobility (molecular weight) of post-aerosol active agent versus control [4],"Peak Area %, Peak 4 [3, 5] [%]","Peak Area %, Peak 5 [3, 5] [%]","dose that leads to formation of molecular fragments ([3]; Enbrel, fragments with elution times of 13 and 25 minutes) [%]"
Albuterol sulfate,over 70%,3.5,4.6,–,–,–,–,–,–,–,–
"Insulin: insulin, Humalog, 200 units/ml, 3 ml kwikpens",–,–,–,5.01,2.4905,0,2.5,–,–,–,–
etanercept [Enbrel],–,–,–,4.25,–,–,–,negligible change,0,0,4.6
